Source: PMC9035508

Columns and labels:
Test in all cases: ELISA; FXIII proteins or collagen type III coated on wells at 10 µg/mL (overnight, 4°C), blocked with 0.5% BSA; GPVI-Fc2 added at varied concentrations; bound GPVI detected by 1G5/IRDye 800CW anti-mouse antibody; KD from binding curves (Figure 1B)
[1] = biological target: FXIII A-subunit (activated) (rh-FXIIIAa), thrombin-activated form of rh-FXIIIA2 (human) (UniProt P00488)
[2] = biological target: FXIII A-subunit (rh-FXIIIA2), recombinant, not fully activated form (human) (UniProt P00488)
[3] = biological target: Plasma FXIII (FXIIIA2B2), tetrameric, not activated (human) (UniProt P00488)
collagen type III = collagen type III (UniProt P02461)
UniProt P02461, sequence (P02461 24-1221): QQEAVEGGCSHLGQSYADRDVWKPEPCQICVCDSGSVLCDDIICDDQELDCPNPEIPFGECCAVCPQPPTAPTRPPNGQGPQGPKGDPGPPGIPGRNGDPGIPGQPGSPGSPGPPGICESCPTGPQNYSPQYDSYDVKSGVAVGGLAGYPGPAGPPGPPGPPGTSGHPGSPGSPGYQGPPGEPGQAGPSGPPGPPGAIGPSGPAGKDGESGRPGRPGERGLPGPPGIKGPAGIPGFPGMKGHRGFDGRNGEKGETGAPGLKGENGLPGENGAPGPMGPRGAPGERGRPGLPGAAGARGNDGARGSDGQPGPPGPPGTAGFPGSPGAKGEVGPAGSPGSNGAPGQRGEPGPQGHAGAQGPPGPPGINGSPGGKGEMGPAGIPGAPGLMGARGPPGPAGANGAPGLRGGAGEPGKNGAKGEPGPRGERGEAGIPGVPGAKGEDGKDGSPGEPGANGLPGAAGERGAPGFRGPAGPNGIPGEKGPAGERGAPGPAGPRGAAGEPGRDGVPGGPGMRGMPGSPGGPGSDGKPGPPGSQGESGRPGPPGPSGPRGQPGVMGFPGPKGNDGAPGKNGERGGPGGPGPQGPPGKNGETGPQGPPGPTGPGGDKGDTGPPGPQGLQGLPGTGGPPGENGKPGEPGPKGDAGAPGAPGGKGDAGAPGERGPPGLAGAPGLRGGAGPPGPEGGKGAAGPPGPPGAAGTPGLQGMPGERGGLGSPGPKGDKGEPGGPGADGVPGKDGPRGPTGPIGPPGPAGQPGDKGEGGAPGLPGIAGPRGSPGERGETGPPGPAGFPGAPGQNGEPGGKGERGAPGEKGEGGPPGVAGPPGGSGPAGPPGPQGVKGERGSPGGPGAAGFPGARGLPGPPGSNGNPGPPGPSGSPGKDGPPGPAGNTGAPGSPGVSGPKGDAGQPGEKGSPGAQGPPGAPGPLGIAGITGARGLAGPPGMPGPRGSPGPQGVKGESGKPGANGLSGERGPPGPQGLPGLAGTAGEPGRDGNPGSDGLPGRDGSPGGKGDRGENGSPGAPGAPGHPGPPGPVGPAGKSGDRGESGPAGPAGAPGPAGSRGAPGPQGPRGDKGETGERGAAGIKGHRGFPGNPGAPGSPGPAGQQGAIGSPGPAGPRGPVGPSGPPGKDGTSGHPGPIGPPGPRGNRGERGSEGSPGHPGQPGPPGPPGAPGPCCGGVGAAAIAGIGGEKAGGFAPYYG

GPVI-Fc2 (recombinant human GPVI extracellular domain, dimer) (from UniProt Q9HCN6 21-267) (Fc fusion)
Kd [1]: 140 nM
Kd [2]: 366 nM
Kd [3]: 216 nM
Kd (collagen type III): 183 nM
